Experimental data published in article PMC5009729 (Nucleic Acids Research, 2016).

Target: the molecule itself
Assay: native MS

B1: Cse2 (natural protein)
chain: MADEIDAMALYRAWQQLDNGSCAQIRRVSEPDELRDIPAFYRLVQPFGWENPRHQQALLRMVFCLSAGKNVIRHQDKKSEQTTGISLGRALANSGRINERRIFQLIRADRTADMVQLRRLLTHAEPVLDWPLMARMLTWWGKRERQQLLEDFVLTTNKNA
  binding result: binds
